Reference: patent publication US20220396627A1 (VERSEAU THERAPEUTICS, published 2022)
Numbering of substitutions follows the chain as printed. Numbers in names are those of the source.

B1: 9D21 (antibody, V domains shown)
VH: QVQLKESGPGLVAPSQSLSITCTVSGFSLTRYGVSWVRQPPGKGLEWLGVIWGDGSTNYHSALISRLSISKDNSKSQVFLKLNSLQTDDTATYYCARPYYGFFDYWGQGTTLTVSS
VL: SIVMTQTPKFLLVSAGDRVTITCKASQSVSNAVAWYQQKPGQSPKMLIYYASNRYTGVPDRFTGSGYGTDFTFTISTVQAEDLAVYFCQQDYSSPYTFGGGTKLEIK
B2: 12P18 (antibody, V domains shown)
VH: QVQLQQSGAELVRPGASVTLSCKASGYTFTDYEMHWVKQTPVHGLEWIGAIDPEAGGTAYNRKFKGKAILTADKSSSTAYMELRSLTSEDSAVYYCTNLGRDYWGQGTTLTVSS
VL: DIVMSQSPSSLAVSVGEKVTMSCKSSQSLLYSSTQKNYLAWYQQKPGQSPKRLIYWASTRESGVPDRFTGSGSGTDFTLTISSVKAEDLAVYYCQQYYSYWTFGGGTKLEIK
B3: 9C15 (antibody, V domains shown)
VH: QVQLQQPGAELVKPGASVKMSCKASGYTFTSYWITWLNQRPGQGLEWIGDIYPGSGGTNYNERFKSKATLTVDTSSSTAYMQLSSLTSEDSAVYYCARSGGWAMDYWGQGTSVTVSS
VL: DIQMTQTTSSLSASLGDRVTISCRASQDISNYLNWYQQKPDGTVKLLIYYKSGLHSGVPSRFSGSGSGTDYSLTISNLEQEDIATYFCQQGNTLPFTFGGGTKLEIK
B4: 12G23 (antibody, V domains shown)
VH: EVQLQQSGPELVRPGASVKMSCKASGYTFTDYNMHWVKQSHGKSLEWIGYINPNNGGTSYNQKFKGKATLTVNKSSSTAYMELRSLTSDDSAVYYCAREGYGNYPFYWGQGTTLTVSS
VL: DIVLTQSPASLAVSLGQRVTISCRGSESVEYYGTSLMQWYQQKPGQPPKLLIYAASNVESGVPARFSGSGSGTDFSLNIHPVEEDDIAMYFCQQDRKVPYTFGGGTKLEIK
B5: 13O18 (antibody, V domains shown)
VH: B4 VH with S59T, K63N, D89E
VL: B4 VL with G25A, Y90F
B6: 3L02 mouse/human chimeric antibody (human IgG4 S228P, kappa) (antibody, V domains shown)
VH: DVQLQESGPGMVKPSQSLSLTCTVTGYSITSGYDWHWIRHFPGNKLEWMGYISYSAGTNYNPSLKSRISITHDTSKNHFFLKLNSVTTEDTATYYCAREGLTAYWYFDVWGTGTTVTVSS
VL: DIVMTQSQKFMSTSVGDRVSVTCKASQTVGTNVAWYQQKPGQSPKPLIYSASYRYSGVPDRFTGSGSGTDFTLTISNVQSEDLAEYFCQQYDSFPLTFGSGTKLEIKR
B7: 12L19 (antibody, V domains shown)
VH: QVTLKESGPGILQPSQTLSLTCSFSGFSLNTFGMAVGWIRQPSGKGLEWLAHIWWDDSYYFNPALRSRLTISKDTSKNQVFLTIANVDTADTATYYCTRIPDDYDDYAMDYWGQGTSVTVSS
VL: DVVMTQTPLSLPVSLGDQASISCRSSQSLVHSNGNTYLHWYLQKPGQSPKLLVYKVSNRFSGVPDRFSGSGSGTDFTLKISRVEAEDLGVYFCSQNTHIPYTFGGGTKLEIK
B8: 3L02 (antibody, V domains shown)
VH: B6 VH
VL: DIVMTQSQKFMSTSVGDRVSVTCKASQTVGTNVAWYQQKPGQSPKPLIYSASYRYSGVPDRFTGSGSGTDFTLTISNVQSEDLAEYFCQQYDSFPLTFGSGTKLEIK

target: T1, Human Siglec-9-Fc (recombinant human Siglec-9 extracellular domain Q18-G348 fused to human IgG1 Fc) (human); test: BLI binning, hSiglec-9-Fc on AHC sensor; competitor bound first (row): 12L19
Experimental: (§1) Epitopic diversity of functional antibodies was further assessed by antibody cross-blocking experiments, performed on a ForteBio Octet Red384 system. All samples were prepared in black 384-well flat bottom plates from (Greiner, Cat. #781209) with a working volume of 120 uL and diluted in kinetics buffer (1×DPBS containing 0.1% bovine serum albumin, 0.05% sodium azide, and 0.02% Tween®20). Anti-SIGLEC-9 antibodies and human Siglec-9-Fc protein were diluted in kinetics buffer to a final concentration of 10 ug/mL. Anti-human IgG Fc capture (AHC) biosensors (ForteBio, Cat. #18-5060) were rehydrated prior to the assay in kinetics buffer for 10 minutes then equilibrated in kinetics buffer for 60 seconds. Recombinant human Siglec-9-Fc was then immobilized for 120 seconds followed by a 30 second baseline wash in fresh kinetics buffer, 120 second association of a first antibody (antibody “a”), 30 second wash, and then 120 second association of a competitor antibody (antibody “b”). All assay steps occurred at 30° C. with an acquisition rate of 5.0 Hz.
(§2) Binning results were calculated using ForteBio Data Analysis HT software. Antibody “a” and antibody “b” steps were defined, and the maximum binding calculation was averaged at the last 10% of the step duration. Once the matrix was generated the self-self interaction was subtracted and hierarchical clustering was set with a similarity metric of Pearson and Lingang Criteria by Mean and the maximum binding nm shift is reported in Table 7 below.

T1 sequence (chain, as listed by the source limits assumed): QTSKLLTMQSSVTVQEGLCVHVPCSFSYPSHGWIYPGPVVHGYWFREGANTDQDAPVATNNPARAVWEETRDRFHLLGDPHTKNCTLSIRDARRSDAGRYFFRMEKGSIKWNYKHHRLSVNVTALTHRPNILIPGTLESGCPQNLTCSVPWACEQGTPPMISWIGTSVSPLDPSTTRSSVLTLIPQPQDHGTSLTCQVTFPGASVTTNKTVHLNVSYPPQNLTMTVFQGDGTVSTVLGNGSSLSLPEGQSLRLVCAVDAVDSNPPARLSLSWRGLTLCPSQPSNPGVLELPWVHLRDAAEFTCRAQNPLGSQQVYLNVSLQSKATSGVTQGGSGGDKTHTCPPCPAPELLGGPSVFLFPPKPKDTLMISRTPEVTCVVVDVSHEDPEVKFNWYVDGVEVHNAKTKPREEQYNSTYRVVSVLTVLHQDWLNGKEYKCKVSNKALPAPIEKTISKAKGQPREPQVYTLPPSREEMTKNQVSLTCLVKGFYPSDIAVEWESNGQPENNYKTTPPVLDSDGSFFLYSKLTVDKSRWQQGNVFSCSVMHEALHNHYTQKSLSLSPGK

| maximum binding nm shift | Binder |
| --- | --- |
| 0.73 nm | B1 |
| 0.518 nm | B2 |
| 0.392 nm | B3 |
| 0.263 nm | B4 |
| 0.251 nm | B5 |

target: Recombinant human Siglec-7-His (human, UniProt Q9Y286 19-353, limits assumed); test: BLI (Octet Red384), chimeric antibody on AHC sensor, His-tagged analyte
Experimental: (§3) The binding affinity of chimeric antibodies was determined by biolayer interferometry (BLI), using a ForteBio Octet Red384 system. All samples were prepared in black 96-well flat bottom plates (Greiner, Cat. #655209) diluted in kinetics buffer (lx DPBS (Gibco, Cat. #LS14190250) containing 0.1% bovine serum albumin, 0.05% sodium azide, and 0.02% Tween®20). Anti-SIGLEC-9 antibodies (ligand) were diluted to a final concentration of 10 ug/mL and captured on anti-human IgG Fc capture (AHC) biosensors (ForteBio, Cat. #18-5060). […] Biosensors were rehydrated prior to the assay in kinetics buffer for 10 minutes and then equilibrated in kinetics buffer for 60 seconds. Antibody was then immobilized for 300 seconds followed by a 120 second baseline wash in fresh kinetics buffer, 300 second analyte association, and 300 second dissociation in the same buffer wells as the baseline wash step. All assay steps occurred at 30° C. with an acquisition rate of 5.0 Hz
(§4) Processing parameters included double reference subtraction, with human IgG4 used as an isotype control for reference sensor subtraction and immobilized ligand in kinetics buffer with no analyte used for reference sample subtraction. Y-axis data was aligned to the average baseline step for the last 5 seconds and all steps were inter-step corrected to the start of the dissociation step. High frequency noise was removed using Savitzky-Golay filtering and final fitting was a 1:1 global binding model to both association and dissociation.

Sequence of Recombinant human Siglec-7-His (Q9Y286 19-353 limits assumed): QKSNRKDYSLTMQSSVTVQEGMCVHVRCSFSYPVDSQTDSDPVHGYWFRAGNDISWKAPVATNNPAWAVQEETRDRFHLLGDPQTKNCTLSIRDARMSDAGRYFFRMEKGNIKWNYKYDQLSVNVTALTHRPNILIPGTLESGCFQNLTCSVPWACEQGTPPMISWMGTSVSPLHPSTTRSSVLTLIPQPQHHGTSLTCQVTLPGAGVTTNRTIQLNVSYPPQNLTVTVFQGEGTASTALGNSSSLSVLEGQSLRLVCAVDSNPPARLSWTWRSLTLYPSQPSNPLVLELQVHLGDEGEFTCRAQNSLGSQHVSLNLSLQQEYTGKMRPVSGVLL

| Binder | binding result |
| --- | --- |
| B6 | no binding (tested: analyte titrated from 100 nM to 1.56 nM) |

target: T2, Recombinant cyno Siglec-9-His (cynomolgus macaque); test: as above
T2 construct: also called Cynomolgus Monkey SIGLEC9-HIS
Experimental: as §3, §4

T2 sequence (chain, as listed by the source limits assumed): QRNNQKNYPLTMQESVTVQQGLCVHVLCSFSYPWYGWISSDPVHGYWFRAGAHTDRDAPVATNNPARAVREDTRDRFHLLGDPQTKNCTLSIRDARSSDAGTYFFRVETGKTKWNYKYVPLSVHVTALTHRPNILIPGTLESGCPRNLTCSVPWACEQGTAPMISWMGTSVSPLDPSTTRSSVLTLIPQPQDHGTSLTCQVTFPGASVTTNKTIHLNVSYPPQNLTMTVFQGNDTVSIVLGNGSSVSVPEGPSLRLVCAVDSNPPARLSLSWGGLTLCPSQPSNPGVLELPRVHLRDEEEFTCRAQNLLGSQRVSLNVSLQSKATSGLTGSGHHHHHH

| Binder | binding result |
| --- | --- |
| B6 | no binding (tested: analyte titrated from 100 nM to 1.56 nM) |

target: T1, Human Siglec-9-Fc (recombinant human …); test: BLI binning, hSiglec-9-Fc on AHC sensor; competitor bound first (row): 13J19
Experimental: as §1, §2

| maximum binding nm shift | Binder |
| --- | --- |
| 0.175 nm | B7 |
| -0.022 nm | B1 |
| 0.324 nm | B2 |
| 0.282 nm | B3 |
| 0.139 nm | B4 |
| 0.135 nm | B5 |

target: T1, Human Siglec-9-Fc (recombinant human …); test: BLI binning, hSiglec-9-Fc on AHC sensor; competitor bound first (row): 12G23
Experimental: as §1, §2

| maximum binding nm shift | Binder |
| --- | --- |
| 0.185 nm | B7 |
| 0.524 nm | B1 |
| 0.439 nm | B2 |
| 0.352 nm | B3 |
| -0.016 nm | B5 |

target: T1, Human Siglec-9-Fc (recombinant human …); test: BLI binning, hSiglec-9-Fc on AHC sensor; competitor bound first (row): 9C15
Experimental: as §1, §2

| maximum binding nm shift | Binder |
| --- | --- |
| 0.231 nm | B7 |
| 0.561 nm | B1 |
| 0.03 nm | B2 |
| 0.233 nm | B4 |
| 0.232 nm | B5 |

target: T1, Human Siglec-9-Fc (recombinant human …); test: BLI binning, hSiglec-9-Fc on AHC sensor; competitor bound first (row): 13O18
Experimental: as §1, §2

| maximum binding nm shift | Binder |
| --- | --- |
| 0.202 nm | B7 |
| 0.495 nm | B1 |
| 0.358 nm | B2 |
| 0.392 nm | B3 |
| 0.011 nm | B4 |

target: T3, Human SIGLEC7; test: ELISA: plate coated with 1 ug/mL human Siglec-7-Fc, antibody at 100 nM, HRP anti-mouse Fc secondary, RLU
T3 construct: also called human Siglec-7-Fc
Experimental: (§5) ELISA plates (384-well) were coated with 1 ug/mL indicated SIGLEC protein at room temperature. The plates were washed with PBS with 0.1% Tween®20, pH 7.4 and blocked with TBS containing 3% BSA. The plates were washed and incubated with anti-SIGLEC9 antibody diluted to 100 nM. Plates were washed and incubated with HRP-coupled anti-mouse Fc secondary antibody. Plates underwent a final wash and were incubated with HRP substrate. Readout was performed using a POLARstar Omega Microplate Reader (BMG LAPTECH).

T3 sequence (Fc fusion chain, as listed by the source): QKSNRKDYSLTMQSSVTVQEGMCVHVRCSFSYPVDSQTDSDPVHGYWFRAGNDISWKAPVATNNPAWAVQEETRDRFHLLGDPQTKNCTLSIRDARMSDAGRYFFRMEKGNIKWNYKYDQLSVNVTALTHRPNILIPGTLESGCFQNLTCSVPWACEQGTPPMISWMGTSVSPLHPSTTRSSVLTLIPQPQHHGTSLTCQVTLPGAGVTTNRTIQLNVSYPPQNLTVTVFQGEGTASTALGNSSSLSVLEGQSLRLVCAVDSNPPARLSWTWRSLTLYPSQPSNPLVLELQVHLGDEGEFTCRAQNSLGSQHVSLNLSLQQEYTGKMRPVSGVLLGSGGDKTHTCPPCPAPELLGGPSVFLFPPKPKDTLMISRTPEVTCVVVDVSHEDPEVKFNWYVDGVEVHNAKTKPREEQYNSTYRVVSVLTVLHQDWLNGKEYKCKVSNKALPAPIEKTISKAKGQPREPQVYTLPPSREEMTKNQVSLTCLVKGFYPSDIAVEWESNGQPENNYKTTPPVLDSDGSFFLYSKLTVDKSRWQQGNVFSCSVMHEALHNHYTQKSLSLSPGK

| binding result | Binder |
| --- | --- |
| no binding (tested: 100 nM) | B8 |
| no binding (tested: 100 nM) | B7 |
| binds | B1 |
| no binding (tested: 100 nM) | B2 |

target: T1, Human Siglec-9-Fc (recombinant human …); test: BLI binning, hSiglec-9-Fc on AHC sensor; competitor bound first (row): 9D21
Experimental: as §1, §2

| maximum binding nm shift | Binder |
| --- | --- |
| 0.263 nm | B7 |
| 0.349 nm | B2 |
| 0.395 nm | B3 |
| 0.162 nm | B4 |
| 0.163 nm | B5 |

target: T1, Human Siglec-9-Fc (recombinant human …); test: BLI binning, hSiglec-9-Fc on AHC sensor; competitor bound first (row): 12P18
Experimental: as §1, §2

| maximum binding nm shift | Binder |
| --- | --- |
| 0.379 nm | B7 |
| 0.658 nm | B1 |
| 0.003 nm | B3 |
| 0.231 nm | B4 |
| 0.228 nm | B5 |

target: T1, Human Siglec-9-Fc (recombinant human …); test: BLI binning, hSiglec-9-Fc on AHC sensor; competitor bound first (row): 2F15
Experimental: as §1, §2

| maximum binding nm shift | Binder |
| --- | --- |
| 0.198 nm | B7 |
| 0.619 nm | B1 |
| 0.352 nm | B2 |
| 0.399 nm | B3 |
| 0.001 nm | B4 |
| 0.003 nm | B5 |

target: T1, Human Siglec-9-Fc (recombinant human …); test: BLI binning, hSiglec-9-Fc on AHC sensor; competitor bound first (row): 3L02
Experimental: as §1, §2

| maximum binding nm shift | Binder |
| --- | --- |
| 0.09 nm | B7 |
| 0.745 nm | B1 |
| 0.463 nm | B2 |
| 0.472 nm | B3 |
| 0.277 nm | B4 |
| 0.271 nm | B5 |

target: T4, Cyno SIGLEC9; test: ELISA: plate coated with 1 ug/mL cyno Siglec-9-Fc, antibody at 100 nM, HRP anti-mouse Fc secondary, RLU
T4 construct: also called cyno Siglec-9-Fc; Cynomolgus Monkey SIGLEC9-Fc
Experimental: as §5

T4 sequence (Fc fusion chain, as listed by the source): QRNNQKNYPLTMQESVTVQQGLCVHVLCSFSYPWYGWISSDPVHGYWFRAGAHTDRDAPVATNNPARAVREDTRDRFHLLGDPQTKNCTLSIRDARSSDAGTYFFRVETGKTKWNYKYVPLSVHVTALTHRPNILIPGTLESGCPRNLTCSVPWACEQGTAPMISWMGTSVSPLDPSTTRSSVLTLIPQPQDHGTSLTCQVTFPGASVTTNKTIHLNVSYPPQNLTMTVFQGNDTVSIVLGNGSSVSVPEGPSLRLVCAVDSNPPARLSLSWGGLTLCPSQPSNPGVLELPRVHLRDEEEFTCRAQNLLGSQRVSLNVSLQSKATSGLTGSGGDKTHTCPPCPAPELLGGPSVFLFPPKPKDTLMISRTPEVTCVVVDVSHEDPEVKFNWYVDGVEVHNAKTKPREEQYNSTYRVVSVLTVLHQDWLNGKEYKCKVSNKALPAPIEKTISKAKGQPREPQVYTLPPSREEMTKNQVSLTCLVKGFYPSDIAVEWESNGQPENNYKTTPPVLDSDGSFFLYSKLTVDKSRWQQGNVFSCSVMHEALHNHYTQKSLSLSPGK

| binding result | Binder |
| --- | --- |
| no binding (tested: 100 nM) | B7 |
| binds | B1 |
| no binding (tested: 100 nM) | B2 |

target: T5, Recombinant human Siglec-9-His (human, UniProt Q9Y336 18-348); test: BLI (Octet Red384), chimeric antibody on AHC sensor, His-tagged analyte 100-1.56 nM, 1:1 global fit
T5 construct: The entry begins at QTSK... like the Q18-G348 extracellular domain of the Fc fusion and ends in GSG and a His tag
Experimental: as §3, §4

T5 sequence (Q9Y336 other isoform, or with tags, fused parts or gaps limits assumed): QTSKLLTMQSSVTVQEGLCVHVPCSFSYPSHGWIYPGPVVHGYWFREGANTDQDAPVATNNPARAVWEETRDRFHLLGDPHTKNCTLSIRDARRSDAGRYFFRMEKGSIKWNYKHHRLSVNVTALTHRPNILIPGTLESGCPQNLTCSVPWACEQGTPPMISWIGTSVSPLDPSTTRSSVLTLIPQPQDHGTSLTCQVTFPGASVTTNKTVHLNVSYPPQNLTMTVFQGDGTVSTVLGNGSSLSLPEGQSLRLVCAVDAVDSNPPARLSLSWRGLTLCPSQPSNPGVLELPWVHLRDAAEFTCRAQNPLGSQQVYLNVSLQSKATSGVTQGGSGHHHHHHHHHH

| Kd | Binder |
| --- | --- |
| 4.4 pM | B6 |

target: T1, Human Siglec-9-Fc (recombinant human …); test: BLI binning, hSiglec-9-Fc on AHC sensor; competitor bound first (row): 13H10 (printed 13H110)
Experimental: as §1, §2

| maximum binding nm shift | Binder |
| --- | --- |
| -0.02 nm | B7 |
| 0.686 nm | B1 |
| 0.336 nm | B2 |
| 0.336 nm | B3 |
| 0.242 nm | B4 |
| 0.224 nm | B5 |
